Data from patent publication US20250295801A1, “CD25 ANTIBODIES, ANTIBODY DRUG CONJUGATES, AND USES THEREOF” (Seagen Inc., priority 2024, published 2025).

Legend:
recombinant cyno CD25 = test: Saturation binding analysis by ELISA; set-up: species or system cynomolgus; conditions: compared with human CD25, FIG. 1A, 1B, 7
Method: Saturation binding ELISA experiments were performed using soluble recombinant antigens, which were diluted to an appropriate concentration in 50 mM carbonate buffer, pH 9.6. To each well of a 96- or 384-well Maxisorb ELISA plate was added 100 μL of soluble antigen. The plate was sealed and stored at 4° C. overnight. The plate was then washed 3-5 times with PBS-T was buffer (PBS, pH 7.4+0.05% Tween-20). The wells were blocked using 300 μL/well of PBS-T buffer containing BSA for 1 hour at room temperature, then washed 3-5 times with PBS-T. Dilutions of antibodies were prepared in blocking buffer and added to each well in a volume of 100 μL. The antibodies were incubated for 1 hour at room temperature, and then washed 3-5 times with PBS-T. HRP-conjugated secondary antibodies (anti-human Fc) were then added and incubated for 1 hour at room temperature. The plate was washed 3-5 times with PBS-T. The ELISA was developed by adding 100 μL of TMB solution and incubating for 3-15 min at room temperature. To stop the reaction, 100 μL of 1 N sulfuric acid was added to each well. The absorbance at 450 nm was determined using a Spectramax 190 plate reader ([…]) and the data plotted using GraphPad Prism 6.
Saturation binding analysis of CD25 antibody SG25Ab-9 and detuned CD25 antibody SG25Ab-9 YH98A on recombinant human and cyno CD25 was assessed by ELISA.

CD25 expressing cells = test: Internalization into CD25 expressing cells; format: cell-based, human; conditions: FIG. 1E

B1: SG25Ab-4: human anti-CD25 IgG1 antibody; VH SEQ ID NO: 31, VL SEQ ID NO: 32 (antibody, V domains shown)
VH: EVQLVQSGAEVKKPGESLKISCKGPEYSFNRYWIAWVRQRPGKGLEWMGIIYPGDSDARYSPTFEGHVTLSADMSLTTAYLQWSSLRASDTAMYYCARLGSYYAFDIWGKGTMVTVSS
VL: QSALTQPASVSGSPGQSITIFCTGTSSDVGGYNYVSWYQQHPGKAPKLMIYDVSKRPSGVSNRFSGSKSGNTASLTISGLQAEDEADYYCSSYTSSSTWVFGGGTQLTVL
binding to recombinant cynomolgus CD25 (recombinant cyno CD25): efficiently bound cynomolgus CD25
internalization into CD25 expressing cells (CD25 expressing cells): efficiently internalized into CD25 expressing cells
